assay: yeast display, Sf9 membrane polyspecificity reagent, FACS + sequencing; frameworks hold sequencing errors
Method in brief: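 In a synthetic yeast display library (Saccharomyces cerevisiae BJ5465), nanobody expression was induced with galactose for 36–48 hours. FACS gates were set low and high (top ~1%) using anti-HA fluorescence for expression and streptavidin fluorescence for binding of the Sf9 membrane reagent. Each polyreactivity label is drawn from the gate of origin.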

Sequence | polyreactivity (PSR sort gate)
QVQLQESGGGLVQAGGSLRLSCAASGNIFLGDTMGWYRQAPGKEREFVAGIARGGNPYYADSVKGRFTISRNNANNTVYLQKNSLKPEDTAVHYCAVQRSHASDYNYWGQGTQVTVSS | low polyreactivity
QVQLQESGGGLVQAGGSLRLSCAASGNISVTGFMGWYRQAPGKERELVASIGIGATTYYADSVKGRFSISRDNAKNTVYLQMNSLKPEDTAVYYCAARYLYYAYSYWGQGTQVTVSS | low polyreactivity
QVQLQESGGGLVQAGGSLRLSCAASGNISVTGFMGWYRQAPGKERELVASIGIGGTTYYADSVKGRFSISRDNAKNTVYLKMNSLKQEDTSVYYCAARYLYYAYSYWGQGTQVTVSS | low polyreactivity
QVQLQESGGGLVQAGGSLRLSCAASGNISVTGFMGWYRQATGKERELVASIGIGGTTYYADSVKGRFSISRDNAKNTVYLQMNSLKPEDTAVYYCAARYLYYAYSYWGQGTQVTVSS | low polyreactivity
QVQLQESGGGLVQAGGSLRLSCAASGNIVDADIMGWYRQEPGKERELVASITDGGSTNYADSVKGRFTISRDNAKNTVYLQMNSLKPEDTAVYYCAAIAYPDIPTYFDYDSEYFYWGQGTQVTVSS | low polyreactivity
QVQLQESGGGLVQAGGSLRLSCAASGSIFADVQMGWYRQAPGKERELVASINFRGTTTYNADSVKGRITISRDNSKNTVYLQMSSLKPEDTAVYYCSVGRSEGGDYAYWGQGTHVTVSS | low polyreactivity
QVQLQESGGGLVQAGGSLRLSCAASGSIFHLHIKCWYRQAPGKERESVAAISYGTSTYYADRVKGRFTICRDNAKNTVYLQMNSPKPDDTAVYYCAALFLVSKHHHYWGEGTQVTVSS | low polyreactivity
QVQLQESGGGLVQAGGSLRLSCAASGSIFKVVDMGLYRQAPAKEREFVATIGEGGNTYYADSVKGRFTISRDNAKNTVYLQMNSLKTEDTAVYFYAVVLGTSYRYTYWGQGTKVTVSS | low polyreactivity
QVQLQESGGGLVQAGGSLRLSCAASGSIFKVVDMGLYRQEPAKEREFVATIGEGGNTYYADSVKGRFTISRDNAKNTVFLQMNSLKPEDTAVYFYAVVLGTSYRYTYWGQGTQVTVSS | low polyreactivity
QVQLQESGGGLVQAGGSLRLSCAASGSIFYEFYMGWYRQAPGKERELVAAIANGASTHYADSVKGRFTISRDNSNNTVYLQMSSLKQEDTAVYYCAVNTTSDIDYIYWGQGTQVNVSS | low polyreactivity
QVQLQESGGGLVQAGGSLRLSCAASGSILFSTLMGWSRQAPGKERELVATITTGTFTNYAGSVKGRFTISRDNAENTVYLQMNSLRPEDTAVYYSADYANHKAGFYYWGQGTQVTVSS | high polyreactivity
QVQLQESGGGLVQAGGSLRLSCAASGSISAVGAMGWYRQAPGKEREFAASVNWGTNTNYADSVKGRFTISRDNAKNTLYLQMNSLKPEDTAVYYCAVLPDWETRHEYWGHGTQVTVSS | low polyreactivity
QVQLQESGGGLVQAGGSLRLSCAASGSISGPHVMGWYRQAPGKEREFVAAINVGANTYYADNVKGRFTISRDNANNTVYLQMNSLKPEDTAVYYCAAVYYGDIGHEYWGQGTQVTVSC | low polyreactivity
QVQLQESGGGLVQAGGSLRLSCAASGSISRLDYMGWYRQASGKERELVAAIDNGRTTYYAESVKGRLTISRDNAKYTVYLQMNSLKPEDTAVYCCAAVRGRGGTHAYWGQGTQVTVSG | low polyreactivity
QVQLQESGGGLVQAGGSLRLSCAASGSISYPRTMGWYSQAPGQEREFVAGIGVGGNTYYAESVKGRFTISSDNAKNTVYLQMNSQKPEDTAVYYCNAEWYYPYYYSRMDYWGLGTQVTVSS | low polyreactivity
QVQLQESGGGLVQAGGSLRLSCAASGSIVVSVTMGWYRKAPGKESELVASIGRGSTTNHADSVKGRFTISRDNAKNIVDLLLNSLKPEDNAVYYCAALESYGKYHGYWGEGTQVTVSS | low polyreactivity
QVQLQESGGGLVQAGGSLRLSCAASGTIFRFRYMGWHRQAPGKERELVAGINGGTTTYYADSVIGRFTISRVNAKNTVYLQMKSLKPDDTAVYNCAAGASRLTYYDYWGQGTQVTVSS | low polyreactivity
QVQLQESGGGLVQAGGSLRLSCAASGTIFRISDMGSYRQAPGKEREFVAAITYGANTYYADSGKGRFTISRDNAKNTVSLQMNSLKPEDTAVYYCAVPPVKETILDYWGQGTQVTVSS | low polyreactivity

— the nanobody polyreactivity screen of Harvey et al. (2022)
